Paper PMC12501226

Tests used:
Test in all cases: SEC
[1] = target: T5A (collagen XVIII trimerization domain, 5-residue G/S linker, ACE2 18-615) (human) (UniProt P39060)
[2] = target: T18A (collagen XVIII trimerization domain, 18-residue G/S linker, ACE2 18-615) (human) (UniProt P39060)
[3] = target: T1A (collagen XVIII trimerization domain, 1-residue G/S linker, ACE2 18-615) (human) (UniProt P39060)
[4] = target: T3A (collagen XVIII trimerization domain, 3-residue G/S linker, ACE2 18-615) (human) (UniProt P39060)

T5A (collagen XVIII trimerization domain, 5-residue G/S linker, ACE2 18-615) (from UniProt P39060;Q9BYF1)
stoichiometry N [1]: 3

T18A (collagen XVIII trimerization domain, 18-residue G/S linker, ACE2 18-615) (from UniProt P39060;Q9BYF1)
stoichiometry N [2]: 3

T1A (collagen XVIII trimerization domain, 1-residue G/S linker, ACE2 18-615) (from UniProt P39060;Q9BYF1)
stoichiometry N [3]: 3

T3A (collagen XVIII trimerization domain, 3-residue G/S linker, ACE2 18-615) (from UniProt P39060;Q9BYF1)
stoichiometry N [4]: 3
